This data set concerns the molecule itself. Put plainly: cross-linking.

B1: His-hArc/Arg3.1 (recombinant human activity-regulated cytoskeleton-associated protein), wild type (natural protein, UniProt Q7LC44 2-396, looked up)
chain: ELDHRTSGGLHAYPGPRGGQVAKPNVILQIGKCRAEMLEHVRRTHRHLLAEVSKQVERELKGLHRSVGKLESNLDGYVPTSDSQRWKKSIKACLCRCQETIANLERWVKREMHVWREVFYRLERWADRLESTGGKYPVGSESARHTVSVGVGGPESYCHEADGYDYTVSPYAITPPPAAGELPGQEPAEAQQYQPWVPGEDGQPSPGVDTQIFEDPREFLSHLEEYLRQVGGSEEYWLSQIQNHMNGPAKKWWEFKQGSVKNWVEFKKEFLQYSEGTLSREAIQRELDLPQKQGEPLDQFLWRKRDLYQTLYVDADEEEIIQYVVGTLQPKLKRFLRHPLPKTLEQLIQRGMEVQDDLEQAAEPAGPHLPVEDEAETLTPAPNSESVASDRTQPE
As for B1, the binding result is reported as “binds”.

B2: His-hArc/Arg3.1 C94/98A (natural protein, human, UniProt Q7LC44 2-396, looked up)
chain: ELDHRTSGGLHAYPGPRGGQVAKPNVILQIGKCRAEMLEHVRRTHRHLLAEVSKQVERELKGLHRSVGKLESNLDGYVPTSDSQRWKKSIKAALCRAQETIANLERWVKREMHVWREVFYRLERWADRLESTGGKYPVGSESARHTVSVGVGGPESYCHEADGYDYTVSPYAITPPPAAGELPGQEPAEAQQYQPWVPGEDGQPSPGVDTQIFEDPREFLSHLEEYLRQVGGSEEYWLSQIQNHMNGPAKKWWEFKQGSVKNWVEFKKEFLQYSEGTLSREAIQRELDLPQKQGEPLDQFLWRKRDLYQTLYVDADEEEIIQYVVGTLQPKLKRFLRHPLPKTLEQLIQRGMEVQDDLEQAAEPAGPHLPVEDEAETLTPAPNSESVASDRTQPE
In the case of B2, the binding result is “binds”.

The values are drawn from publication doi:10.1101/2025.07.20.665809 (bioRxiv, 2025).
